# Assay results as given in PMC7795492, “Protein Sensing Device with Multi-Recognition Ability Composed of Self-Organized Glycopeptide Bundle” (International Journal of Molecular Sciences, 2020).
# Entries after “also recorded” stand apart in the source; their conditions may differ. Where two headings read alike, the source gives them in different places.
# B1: PNA: peanut lectin with specific binding site for galactose (protein, UniProt P02872 24-273, looked up)
# Galactose-binding lectin: AETVSFNFNSFSEGNPAINFQGDVTVLSNGNIQLTNLNKVNSVGRVLYAMPVRIWSSATGNVASFLTSFSFEMKDIKDYDPADGIIFFIAPEDTQIPAGSIGGGTLGVSDTKGAGHFVGVEFDTYSNSEYNDPPTDHVGIDVNSVDSVKTVPWNSVSGAVVKVTVIYDSSTKTLSVAVTNDNGDITTIAQVVDLKAKLPERVKFGFSASGSLGGRQIHLIRSWSFTSTLITTTRRSIDNNEKKIMNMASA
# Experiments:
# [1] = tested on: PNA-induced glycopeptide bundle in DPPC bilayer membrane; type: binding; settings: Electrochemical method
# From the text: The response current waves were very similar to those derived according to Equation (7) based on the equivalent circuit in Figure A2. The equivalent circuit was a parallel circuit consisting of a capacitor (DPPC bilayer membrane; Cmemb), a resistor (glycopeptide bundle not bound to the target protein as an open channel; Ropen), the serial circuit of a capacitor (bound target protein on glycopeptide bundle; Cprotein), and a resistor (target protein bound to the glycopeptide bundle as a closed channel; Rclose). First, we verified whether the electrochemical properties of the DPPC bilayer membrane with a target protein-induced glycopeptide bundle could be expressed by the proposed equivalent circuit. […] The sensing membrane was used containing the PNA-induced glycopeptide bundle, and the added protein was PNA. In the simulation, the resistances, Ropen = 6.00 × 10^4 Ω and Rclose = 1.73 × 10^4 Ω, and capacitances, Cmemb = 1.00 × 10^−6 F and Cprotein = 3.00 × 10^−6 F, were held constant. Furthermore, x (=ΔI/ΔImax) was calculated from the ratio of the current changes, ΔI (Figure A4), between before and after the protein was added at peak voltage applied, and the saturated current changes, ΔImax (Table 2); this is described below.
# (§3) We attempted to detect the protein using the sensing membrane using the electrochemical method. From the simulation, the value of the increase in the current before and after protein addition at the peak voltage, ΔI, was proportional to the fraction of the closed channel that is protein bound glycopeptide bundle (Figure A4).
# We attempted quantitative analysis of the binding isotherms obtained from the QCM and electrochemical measurements. The curves in Figure 5 and Figure 7 were obtained by curve-fitting the experimental values using the Langmuir binding isotherm. […] In the electrochemical measurement, the value of ΔI corresponds to the amount of the closed channel in the formed complex between the protein and glycopeptide bundle that acted as an ion channel. ΔImax corresponds to the total channel amount. Therefore, we used ΔI and ΔImax as the binding amount and saturated binding amount, respectively, for the Langmuir binding isotherm [36].
# [2] = tested on: PNA-induced glycopeptide bundle in DPPC bilayer membrane; experiment: QCM binding isotherm, PNA-induced glycopeptide bundle; settings: QCM method
# From the text: (§1) We determined binding amounts of proteins to the induced glycopeptide bundles by QCM measurements. […] The molecular weights of PNA and ConA were 98,000 [27] and […] [33], respectively, assuming that they formed tetramers.
# We attempted quantitative analysis of the binding isotherms obtained from the QCM and electrochemical measurements. The curves in Figure 5 and Figure 7 were obtained by curve-fitting the experimental values using the Langmuir binding isotherm. It can be seen that both curves are in good agreement with the experimental values. […] In the electrochemical measurement, the value of ΔI corresponds to the amount of the closed channel in the formed complex between the protein and glycopeptide bundle that acted as an ion channel. ΔImax corresponds to the total channel amount. Therefore, we used ΔI and ΔImax as the binding amount and saturated binding amount, respectively, for the Langmuir binding isotherm.
# (§2) For the binding isotherm parameters obtained by the QCM measurements, the saturated binding amount, Wmax, for the protein used to induce the glycopeptide bundle was slightly larger, but a systematic relationship could not be seen in the binding constants, K. However, in the parameters obtained from the electrochemical method, the binding constant, K, to the target protein used to induce the glycopeptide bundle acting as a channel, was higher than that of other proteins, and the ΔImax value corresponding to the saturated binding amount was also remarkably larger. In addition, the selective detection of the target protein to the DPPC bilayer membrane with the target protein-induced glycopeptide bundle was evaluated from the ratio to the saturated binding amounts of other proteins. For example, the value of the selectivity of PNA to ConA, of 1.34, in the QCM method of the PNA-induced sensing membrane was obtained from Wmax, PNA/Wmax, ConA.
# We previously reported that heating a vesicle containing a peptide above its gel–liquid crystal transition temperature, Tc, increases the fluidity of the lipid bilayer membrane and allows the peptide to easily diffuse laterally through the membrane. At this time, if a protein that specifically interacts with the sugar chains at the terminal of the glycopeptides is present, the glycopeptides are re-arranged in the membrane, and form specific binding site to the target protein on the glycopeptide bundle. The target protein was added to aqueous solution containing DPPC vesicle with glycopeptides and a spacer peptide in the bilayer membrane. The molar ratio of the added protein to the glycopeptides was 2. The Tc of DPPC is 41 °C [41]. The vesicle solution was incubated at 60 °C above Tc for 15 min to form a glycopeptide bundle. […]
# [3] = tested on: ConA-induced glycopeptide bundle in DPPC bilayer membrane; experiment: QCM binding isotherm, ConA-induced glycopeptide bundle; settings: QCM method, Langmuir fit, 25 °C
# From the text: as §1
# We attempted quantitative analysis of the binding isotherms obtained from the QCM and electrochemical measurements. The curves in Figure 5 and Figure 7 were obtained by curve-fitting the experimental values using the Langmuir binding isotherm. It can be seen that both curves are in good agreement with the experimental values. […]
# as §2, with “For example, the value of the selectivity of PNA to ConA, of 1.34, in the QCM method of the PNA-induced sensing membrane was obtained from Wmax, PNA/Wmax, ConA.” left out
# [4] = tested on: ConA-induced glycopeptide bundle in DPPC bilayer membrane; experiment: Electrochemical detection (peak current response, channel blockage), ConA-induced glycopeptide bundle; type: binding; settings: Electrochemical method, Langmuir fit, ±5 mV triangular voltage, 11.24 Hz, 0.1 M HEPES-Tris pH 7.4, 0.1 M KCl
# From the text: as §3
# The curves in Figure 5 and Figure 7 were obtained by curve-fitting the experimental values using the Langmuir binding isotherm. […] In the electrochemical measurement, the value of ΔI corresponds to the amount of the closed channel in the formed complex between the protein and glycopeptide bundle that acted as an ion channel. ΔImax corresponds to the total channel amount. Therefore, we used ΔI and ΔImax as the binding amount and saturated binding amount, respectively, for the Langmuir binding isotherm [36].
# At this time, if a protein that specifically interacts with the sugar chains at the terminal of the glycopeptides is present, the glycopeptides are re-arranged in the membrane, and form specific binding site to the target protein on the glycopeptide bundle. The target protein was added to aqueous solution containing DPPC vesicle with glycopeptides and a spacer peptide in the bilayer membrane. The molar ratio of the added protein to the glycopeptides was 2. […] The vesicle solution was incubated at 60 °C above Tc for 15 min to form a glycopeptide bundle. […]
# [5] = cited from earlier work
# From the text: This implies that the proteins with the same sugar binding sites can be selectively recognized if their 3D-structures are different. […] The PNA-induced glycopeptide bundle has a spatial arrangement of galactose corresponded to its binding sites in PNA. Two ... || We used PNA (Wako Pure Chemical Industrials, Ltd., Osaka, Japan) and ConA (CALBIOCHEM, San Diego, CA, USA) as the target proteins.
# [6] = PNA-induced bundle, ratio of ΔImax
# [7] = PNA-induced glycopeptide bundle in DPPC bilayer, Langmuir fit, ±5 mV triangular voltage, 11.24 Hz, 0.1 M HEPES-Tris pH 7.4, 0.1 M KCl
# [8] = PNA-induced glycopeptide bundle in DPPC bilayer, Langmuir fit, 25 °C
molecule,measurement,setting,value
B1,Selectivity of PNA to BSA,[1]; [6],17.8
same,Selectivity of PNA to ConA,[1]; [6],9.53
same,"Binding constant, K",[1]; [7],2.1e+09 M⁻¹
same,"Saturated current change, ΔImax",[1]; [7],0.41 μA
same,Current response / recognition (in words),[1]; PNA-induced sensing membrane,specific response; also recorded: very large current responses
same,Selectivity of PNA to BSA,"[2]; PNA-induced bundle, ratio of Wmax",2.47
same,Binding preference in QCM (in words),[2]; PNA-induced glycopeptide bundle,preferentially bound
same,"Binding constant, K",[2]; [8],8.2e+08 M⁻¹
same,"Saturated binding amount, Wmax",[2]; [8],0.47 ng
same,"Binding constant, K",[3],9.5e+08 M⁻¹
same,"Saturated binding amount, Wmax",[3],0.21 ng
same,"Binding constant, K",[4],1.1e+09 M⁻¹
same,"Saturated current change, ΔImax",[4],0.035 μA
same,Sugar binding specificity,[5],specific binding sites for galactose
